Reference: paper PMC6144819 (Nucleic Acids Research, 2018)

Target: T1, Drosophila SUMO-TRAX (WT) (Drosophila, UniProt Q9VF77 1-298)
T1 sequence (looked up): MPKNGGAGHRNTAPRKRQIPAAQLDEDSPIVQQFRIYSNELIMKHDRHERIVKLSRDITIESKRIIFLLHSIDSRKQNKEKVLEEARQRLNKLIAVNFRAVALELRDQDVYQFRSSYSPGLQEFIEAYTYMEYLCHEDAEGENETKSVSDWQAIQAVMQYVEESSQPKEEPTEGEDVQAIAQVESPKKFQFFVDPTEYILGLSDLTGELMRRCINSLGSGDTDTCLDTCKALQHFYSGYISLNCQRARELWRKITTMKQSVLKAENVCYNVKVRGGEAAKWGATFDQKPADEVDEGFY
Assay: cryo-EM structure

stoichiometry N: 1 TRAX per Translin (4:4)
B1: Drosophila Translin (natural protein, UniProt Q7JVK6 1-235, looked up)
chain: MSNFVNLDIFSNYQKYIDNEQEVRENIRIVVREIEHLSKEAQIKLQIIHSDLSQISAACGLARKQVELCAQKYQKLAELVPAGQYYRYSDHWTFITQRLIFIIALVIYLEAGFLVTRETVAEMLGLKISQSEGFHLDVEDYLLGILQLASELSRFATNSVTMGDYERPLNISHFIGDLNTGFRLLNLKNDGLRKRFDALKYDVKKIEEVVYDVSIRGLSSKEKDQQEEPAVPATE
